Patent US11795460B2, “Compositions and methods for TTR gene editing and treating ATTR amyloidosis” (Intellia Therapeutics, Inc., priority 2017, dated 2023)
Strand notation (5' to 3'): a small letter for the sugar, then the base; units joined by * are phosphorothioate-linked, units joined directly phosphodiester-linked; [ ] holds rarer units or linkages, { } end groups; capitals alone tell only the bases. m = 2'-O-methyl; r = 2'-OH (RNA)

B1: G000504: TTR Cyno specific sgRNA modified sequence, SEQ ID No. 116; guide sequence of CR005364 (nucleic acid)
guide: mA*mA*mA*rGrGrCrUrGrCrUrGrArUrGrArGrArCrCrUrGrUrUrUrUrArGrAmGmCmUmAmGmAmAmAmUmAmGmCrArArGrUrUrArArArArUrArArGrGrCrUrArGrUrCrCrGrUrUrArUrCrAmAmCmUmUmGmAmAmAmAmAmGmUmGmGmCmAmCmCmGmAmGmUmCmGmGmUmGmCmU*mU*mU*mU
B2: G000503: TTR Cyno specific sgRNA modified sequence, SEQ ID No. 115; guide sequence of CR005372 (nucleic acid)
guide: mA*mA*mA*rArGrGrCrUrGrCrUrGrArUrGrArGrArCrCrGrUrUrUrUrArGrAmGmCmUmAmGmAmAmAmUmAmGmCrArArGrUrUrArArArArUrArArGrGrCrUrArGrUrCrCrGrUrUrArUrCrAmAmCmUmUmGmAmAmAmAmAmGmUmGmGmCmAmCmCmGmAmGmUmCmGmGmUmGmCmU*mU*mU*mU
B3: G000505: TTR Cyno specific sgRNA modified sequence, SEQ ID No. 117; guide sequence of CR005365 (nucleic acid)
guide: mC*mA*mU*rUrGrArCrArGrCrArGrGrArCrUrGrCrCrUrGrUrUrUrUrArGrAmGmCmUmAmGmAmAmAmUmAmGmCrArArGrUrUrArArArArUrArArGrGrCrUrArGrUrCrCrGrUrUrArUrCrAmAmCmUmUmGmAmAmAmAmAmGmUmGmGmCmAmCmCmGmAmGmUmCmGmGmUmGmCmU*mU*mU*mU
B4: G000506: TTR Cyno specific sgRNA modified sequence, SEQ ID No. 118; guide sequence of CR005366 (nucleic acid)
guide: mA*mU*mA*rCrCrArGrUrCrCrArGrCrGrArGrGrCrArGrGrUrUrUrUrArGrAmGmCmUmAmGmAmAmAmUmAmGmCrArArGrUrUrArArArArUrArArGrGrCrUrArGrUrCrCrGrUrUrArUrCrAmAmCmUmUmGmAmAmAmAmAmGmUmGmGmCmAmCmCmGmAmGmUmCmGmGmUmGmCmU*mU*mU*mU

Each molecule was assayed on TTR (assay: TTR editing in primary cyno hepatocytes electroporated with Spy Cas9 protein and sgRNAs (Tables 14, 15)). Conditions: Table 15; primary cyno hepatocytes electroporated with Spy Cas9 protein (RNP) and cyno specific sgRNAs.
Format: cell-based, cynomolgus monkey
Method: (§1) Primary liver hepatocytes. Primary human liver hepatocytes (PHH) and primary cynomolgus liver hepatocytes (PCH) (Gibco) were cultured per the manufacturer's protocol (Invitrogen, protocol 11.28.2012). In brief, the cells were thawed and resuspended in hepatocyte thawing medium with supplements (Gibco, Cat. CM7000) followed by centrifugation at 100 g for 10 minutes for human and 80 g for 4 minutes for cyno. The supernatant was discarded and the pelleted cells resuspended in hepatocyte plating medium plus supplement pack (Invitrogen, Cat. A1217601 and CM3000). Cells were counted and plated on Bio-coat collagen I coated 96-well plates (ThermoFisher, Cat. 877272) at a density of 33,000 cells/well for human or 60,000 cells/well for cyno (or 65,000 cells/well when assaying effects on TTR protein, described further below). Plated cells were allowed to settle and adhere for 6 or 24 hours in a tissue culture incubator at 37° C. and 5% CO2 atmosphere. After incubation cells were checked for monolayer formation and media was replaced with hepatocyte culture medium with serum-free supplement pack (Invitrogen, Cat. A1217601 and CM4000).
[…] formation was performed prior to electroporation or transfection of Spy Cas9 protein loaded with guide RNAs (RNPs) onto cells. For dual guide (dgRNAs), individual crRNA and trRNA was pre-annealed by mixing equivalent amounts of reagent and incubating at 95° C. for 2 min and cooling to room temperature. Single guide (sgRNAs) were boiled at 95° C. for 2 min and cooling to room temperature. The boiled dgRNA or sgRNA was incubated with Spy Cas9 protein in Optimem for 10 minutes at room temperature to form a ribonucleoprotein (RNP) complex.
For RNP electroporation into primary human and cyno hepatocytes, the cells are thawed and resuspended in Lonza electroporation Primary Cell P3 buffer at a concentration of 2500 cells per μL for human hepatocytes and 3500 cells per μL for cyno hepatocytes. A volume of 20 μL of resuspended cells and 5 μL of RNP are mixed together per guide. 20 μL of the mixture is placed into a Lonza electroporation plate. The cells were electroporated using the Lonza nucleofector with the preset protocol EX-147. Post electroporation, the cells are transferred into a Biocoat plate containing pre-warmed maintenance media and placed in a tissue culture incubator at 37° C. and 5% CO2.
Transfected cells were harvested post-transfection at 24, 48, or 72 hours. The genomic DNA was extracted from each well of a 96-well plate using 50 μL/well BuccalAmp DNA Extraction solution (Epicentre, Cat. QE09050) per manufacturer's protocol. All DNA samples were subjected to PCR and subsequent NGS analyses, as described herein.
(§2) To quantitatively determine the efficiency of editing at the target location in the genome, sequencing was utilized to identify the presence of insertions and deletions introduced by gene editing.
(§3) Primers were designed around the target site within the gene of interest (e.g. TTR), and the genomic area of interest was amplified.
(§4) Additional PCR was performed per the manufacturer's protocols (Illumina) to add chemistry for sequencing. The amplicons were sequenced on an Illumina MiSeq instrument. The reads were aligned to a reference genome (e.g., the human reference genome (hg38), the cynomologus reference genome (mf5), the rat reference genome (rn6), or the mouse reference genome (mm10)) after eliminating those having low quality scores. The resulting files containing the reads were mapped to the reference genome (BAM files), where reads that overlapped the target region of interest were selected and the number of wild type reads versus the number of reads which contain an insertion, substitution, or deletion was calculated.
The editing percentage (e.g., the “editing efficiency” or “percent editing” or “indel frequency”) is defined as the total number of sequence reads with insertions/deletions (“indels”) or substitutions over the total number of sequence reads, including wild type. […]

**Q.** For B1, which “Avg % Deletion” value is on record?
**A.** 7.53%

**Q.** What about the “Avg % Edit” value of the same molecule?
**A.** 77.17%

**Q.** And the “Avg % Insert” value?
**A.** 69.73%

**Q.** B2 was tested. Which “Avg % Deletion” value did it give?
**A.** 6.50%

**Q.** What about the “Avg % Edit” value of the same molecule?
**A.** 58.53%

**Q.** And the “Avg % Insert” value?
**A.** 52.07%

**Q.** How did the “Avg % Deletion” value turn out when B3 was run?
**A.** 0.10%

**Q.** What about the “Avg % Edit” value of the same molecule?
**A.** 95.53%

**Q.** And the “Avg % Insert” value?
**A.** 95.50%

**Q.** With B4 as the molecule, how does the “Avg % Deletion” value read?
**A.** 3.07%

**Q.** And the “Avg % Edit” value?
**A.** 89.43%

**Q.** What about the “Avg % Insert” value of the same molecule?
**A.** 86.90%

The molecules below were run on TTR (assay: EC50 and maximum editing in primary human hepatocytes treated with LNP formulated U-depleted Spy Cas9 mRNA and sgRNAs (Tables 19, 21)). Conditions: Table 21, LNP with U-depleted Spy Cas9 mRNA and cyno specific sgRNAs, dose response.
Format: cell-based
Design: key: % of sequence reads with indels or substitutions over total reads
Method: as §1
(§5) For LNPs prepared using the cross-flow technique, the LNPs were formed by impinging jet mixing of the lipid in ethanol with two volumes of RNA solutions and one volume of water. The lipid in ethanol is mixed through a mixing cross with the two volumes of RNA solution. A fourth stream of water is mixed with the outlet stream of the cross through an inline tee. (See WO2016010840 FIG. 2.) The LNPs were held for 1 hour at room temperature, and further diluted with water (approximately 1:1 v/v). Diluted LNPs were concentrated using tangential flow filtration on a flat sheet cartridge (Sartorius, 100 kD MWCO) and then buffer exchanged by diafiltration into 50 mM Tris, 45 mM NaCl, 5% (w/v) sucrose, pH 7.5 (TSS). Alternatively, the final buffer exchange into TSS was completed with PD-10 desalting columns (GE). If required, formulations were concentrated by centrifugation with Amicon 100 kDa centrifugal filters (Millipore). The resulting mixture was then filtered using a 0.2 μm sterile filter. The final LNP was stored at 4° C. or −80° C. until further use.
as §2, §3, §4
(§6) The editing percentage (e.g., the “editing efficiency” or “percent editing” or “indel frequency”) is defined as the total number of sequence reads with insertions/deletions (“indels”) or substitutions over the total number of sequence reads, including wild type.
(§7) Lipid nanoparticle formulations of modified sgRNAs targeting human TTR and the cyno matched sgRNA sequences were tested on primary human hepatocytes and primary cyno hepatocytes in a dose response curve. Primary human and cyno hepatocytes were plated as described in Example 1. Both cell lines were incubated at 37° C., 5% CO2 for 24 hours prior to treatment with LNPs. […]

**Q.** Which “Max Editing” value does the source give for B1 here?
**A.** 7.16

**Q.** With B3 as the molecule, how does the “Max Editing” value read?
**A.** 13.48

**Q.** How did the “Max Editing” value turn out when B4 was run?
**A.** 89.49

What follows are molecules tested on TTR (assay: EC50 and maximum editing in primary cyno hepatocytes treated with LNP formulated U-depleted Spy Cas9 mRNA and sgRNAs (Tables 20, 22)). Conditions: Table 22, LNP with U-depleted Spy Cas9 mRNA and cyno specific sgRNAs, dose response.
Format: cell-based, cynomolgus monkey
Design: key: % of sequence reads with indels or substitutions over total reads
Method: as §1, §5, §2, §3, §4, §6, §7

**Q.** Which “Max Editing” value does the source give for B1 here?
**A.** 98.04

**Q.** For B2, which “Max Editing” value is on record?
**A.** 83.41

**Q.** Which “Max Editing” value does the source give for B3 here?
**A.** 99.97

**Q.** How did the “Max Editing” value turn out when B4 was run?
**A.** 99.18

The molecules below were run on TTR (assay: TTR editing in primary cyno hepatocytes treated with LNP formulated Spy Cas9 mRNA (SEQ ID NO: 2) and sgRNAs (Tables 17, 18)). Conditions: LNP formulated Spy Cas9 mRNA (SEQ ID NO: 2) and cyno matched sgRNAs, 72 hours post treatment.
Format: cell-based, cynomolgus monkey
Method: as §1
In general, the lipid nanoparticle components were dissolved in 100% ethanol with the lipid component of various molar ratios. The RNA cargos were dissolved in 25 mM citrate, 100 mM NaCl, pH 5.0, resulting in a concentration of RNA cargo of approximately 0.45 mg/mL. The LNPs were formulated with a lipid amine to RNA phosphate (N:P) molar ratio of about 4.5 or about 6, with the ratio of mRNA to gRNA at 1:1 by weight.
The LNPs were formed by microfluidic mixing of the lipid and RNA solutions using a Precision Nanosystems NanoAssemblr™ Benchtop Instrument, according to the manufacturer's protocol. A 2:1 ratio of aqueous to organic solvent was maintained during mixing using differential flow rates. After mixing, the LNPs were collected, diluted in water (approximately 1:1 v/v), held for 1 hour at room temperature, and further diluted with water (approximately 1:1 v/v) before final buffer exchange. The final buffer exchange into 50 mM Tris, 45 mM NaCl, 5% (w/v) sucrose, pH 7.5 (TSS) was completed with PD-10 desalting columns (GE). If required, formulations were concentrated by centrifugation with Amicon 100 kDa centrifugal filters (Millipore). The resulting mixture was then filtered using a 0.2 μm sterile filter. The final LNP was stored at −80° C. until further use.
as §2, §3, §4, §6
Lipid nanoparticle formulations of modified sgRNAs targeting human TTR and the cyno matched sgRNA sequences were tested on primary human hepatocytes and primary cyno hepatocytes in a dose response curve. Primary human and cyno hepatocytes were plated as described in Example 1. […]

**Q.** How did the “12.5 ng mRNA, 3.9 nM sgRNA % Edit” value turn out when B4 was run?
**A.** 60.13%
